Where two headings read alike, the source gives them in different places. Ends that are not written are not given here.
T1: BSA-PEP3 peptide (also: conjugated to BSA)
T1 peptide: PWNASWSNKSLDDIW


Tests used:
[1] = target: T2, HIV-1 MN gp41 recombinant protein produced in E. coli (565-771Delta642-725) (HIV-1 MN); assay: ELISA
[2] = target: T3, HXB2 gp41 recombinant protein (a.a. 534-681) (UniProt P04578 534-681); assay: sandwich ELISA; capture Ab
[3] = target: T1, BSA-PEP3 peptide; assay: ELISA
[4] = target: T4, HIV-1 MN gp41 (a.a. 542-666) produced in S2 cells (UniProt P05877 542-666); assay: ELISA; curve not in saturation
[5] = target: T1, BSA-PEP3 peptide; assay: ELISA
[6] = target: T4, HIV-1 MN gp41 (a.a. 542-666) produced …; assay: ELISA
[7] = target: T3, HXB2 gp41 recombinant protein (a.a. …); assay: ELISA
[8] = target: T2, HIV-1 MN gp41 recombinant protein …; assay: ELISA; remark: listed apart in the source
[9] = target: T3, HXB2 gp41 recombinant protein (a.a. …); assay: ELISA; remark: listed apart in the source
[10] = target: T4, HIV-1 MN gp41 (a.a. 542-666) produced …; assay: ELISA; remark: listed apart in the source
[11] = target: T3, HXB2 gp41 recombinant protein (a.a. …); assay: ELISA; curve not in saturation

Row | Binder | EC50 [1] | EC50 [2] | EC50 [3] | EC50 [4] | EC50 [5] | EC50 [6] | EC50 [7] | EC50 [8] | EC50 [9] | EC50 [10] | EC50 [11]
1 | anti-PEP3 mAb 15B4 (antibody, V domains shown) VH: QVQLQQSGPELVRPGTSVKISCKAPGYSFTSHWMQWLRQRPGQGLEWIGEIFPGSGKTYYNEKFKDKATLTADTSSTTVYMQFSSLTSEDSAVYFCASDYDGGDYWGQGTTLTVSS VL: not shown | 0.3 µg/mL | 0.355 µg/mL | 0.02 µg/mL | > 11 µg/mL | 0.02 µg/mL | > 11 µg/mL | 0.12 µg/mL | 0.3 µg/mL | 0.12 µg/mL | – | –
2 | anti-PEP3 mAb 3A2 (antibody, V domains shown) VH: QVQLQQPGAELVKPGASVKLSCKASGYIFTNYWMHWVRQRPGQGPEWIGMIHPNRGDLHYSEKFNNKATLTVDKSSSTAYMQLNSLASEDSAVYFCARAGLGVFDYWGQGSTLTVSS VL: DVVMTQTPLSLPVSLGDQVSMSCRSSQSIEHSNRNTYLEWYLHKPGQAPQLLIYGVSNRFTGVPDRFSGSGSGTDFTLKISRVEAEDMGVYHCLQGTHVPFTFGSGTKLEIK | 0.02 µg/mL | 0.0098 µg/mL | 0.007 µg/mL | – | 0.007 µg/mL | 0.78 µg/mL | 0.0044 µg/mL | 0.02 µg/mL | 0.0044 µg/mL | 0.78 µg/mL | –
3 | anti-PEP3 mAb 8D5 (antibody, V domains shown) VH: QVQLQQPGAELIEPGTSVKLSCKASGYTFTTYWMHWVKQRPGQGLEWIGMIHPNSGDTFYNENFKNKATLTVDISSSTVYMELSSLTSEDSAVYSCVKAGTGALDYWGQGTTLTVSS VL: DVVMTQTPLSLPVSLGDQASISCRSSQSIVHSNRYTYLEWYLQRPGQSLKLLIYGVSNRFSGVPDRFSGSGSGTDFILKISRVEAEDMGVYYCFQGTHVPFTFGSGTKLEIK | 0.02 µg/mL | 0.018 µg/mL | 0.006 µg/mL | – | 0.006 µg/mL | 0.09 µg/mL | 0.0005 µg/mL | 0.02 µg/mL | 0.0005 µg/mL | 0.09 µg/mL | –
4 | anti-PEP3 gp41 mAb 4G1 (antibody, V domains shown) VL: DVVMTQTPLSLCVSLGDQASISCRTSQSIVHSNRYTYLEWYLQKPGQPLKLLIYGIANRFSGVPDRFSGSGSGTDFTLKISRVEAEDMGVYYCLQGTHVPFTFGSGTKLEIK V domain: QVQLQQPGAELVKPGASVKLSCKASGYIFRNYWMHWVKQRPGQGLEWIGMIHPNSDITHYNEKFKNRATLTVDKSSSTAYMQLNSLTSEDSAVYYCARGGLGVFDYWGQGTALRVSS | 0.005 µg/mL | – | – | – | – | – | – | 0.005 µg/mL | – | – | –
5 | anti-PEP3 mAb 9B12 (antibody, V domains shown) VH: QVQLQQSGPELVKPGASVKISCKASGYGFSDSWMNWVKQRPGKGLDWIGRIYPGDGDTDYNGKFKDKATLTADKSSTTAYMQLSSLTSEDSAVYFCAYLGHWGQGTLVTVSA VL: not shown | > 30 µg/mL | – | 0.02 µg/mL | > 700 µg/mL | 0.02 µg/mL | > 700 µg/mL | > 137 µg/mL | > 30 µg/mL | – | – | > 137 µg/mL
6 | anti-PEP3 mAb 5E12 (antibody, V domains shown) VH: QIQLVQSGPELKKPGETVKISCKASGYTFRTYGMSWVKQAPGKGLKWMGWINTYSGVPRYVDDFKGRFALSLETSASTAYLQINNLKSEDTATYFCVREGYSYYGSSFHTMDYWGQGTSVTVSS VL: DIQMTQTPLTLSVTIGHPASISCKSSQSLLHTNGKIYLNWLLQRPGQSPKRLIYLVSKLDSGVPDRFSGSGSGTDFTLKISRVEAEDLGVYYCLQSTHFPQTFGGGTKLEIK | > 13 µg/mL | – | 0.015 µg/mL | > 19 µg/mL | 0.015 µg/mL | > 19 µg/mL | > 20 µg/mL | > 13 µg/mL | – | – | > 20 µg/mL
